Measurements as given in the nanobody polyreactivity screen of Harvey et al. (2022).

Test: yeast display, Sf9 membrane polyspecificity reagent, FACS + sequencing; frameworks hold sequencing errors
Procedure, shortened: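 Polyreactivity labels are assigned by the sorting gate from which each nanobody was recovered. The gates were low and high (top ~1%), set on anti-HA fluorescence for expression and streptavidin fluorescence for reagent binding. Before sorting, galactose-induced (36–48 hours) yeast display cells were stained for 1 hour at 4 °C with 10% biotinylated, detergent-solubilized Sf9 membrane reagent.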

| Sequence | polyreactivity (PSR sort gate) |
| --- | --- |
| QVQLVESGGGLVQAGRSLRLSCPASGRTVVYNSLGWYRQAPGKETEFVAAITRSRDSTYYADSVKGRFTISRDNASNPVYLEMNSLKPEDSAAYYCNAVSKRYWLMDYWGQGTQVTVSS | high polyreactivity |
| QVQLVESGGGLVQAGRSNRISCAASGGIFSYYAMGWYRQAPGKEREFVAAIDWGGGSTYYADSLKGRFTLSRDNAKNTVYLQMNSLKPEDTAVYYCAAEIYPIGWDDYDYWGQGTQVTVSS | low polyreactivity |
| QVQLVESGGGLVQAGRTLRLSCAASGRLFSHNAMGWYRQAPGKEREWVAAISGSGGSTYYADSVKGRFTISRDNAKNTVYLQMNSLKPEDTAVYYCAARFAVLVTRRFYYWGQGTQVTVSS | high polyreactivity |
| QVQLVESGGGLVQAGRTLRLSCAATGFIIVHNAMGWYRQPPGKERELVAAITSRGRTYYADSVKGRFTISRDHAKNTVYLQMNSLKPEDTAVYYCNPYWRGDYRYDSWGQGTQVTVSS | high polyreactivity |
| QVQLVESGGGLVQAGVILRLSCAASGRIITTYAMGRYRQAPGKERELVAAISARGGRTYYADSVKGRFTISRDNAKNTVYLQMNSLKPEDTAVYYCAAVSIQAYTRRQYDWGQGTQVTVSS | high polyreactivity |
| QVQLVESGGGLVQAGVRLRLSCAASGFIFVVNAMGWYRPATRKEREFVAVISSSTGSTYYADSVKGRFTISRDNAKYTVYLPMNSLKPEDTAVYYCAAASRRRRPLKRMDYWGQGTQVTVSS | low polyreactivity |
| QVQLVESGGGLVQAGVRLRLSCPASGTTFYYNAMGRYRQAPGKERELVAAITSGGRTKYADSVKGRFTISRDNAKNTVYLQKNRLKPEDTAVYYCNTYNRRSGTLPKAYDYWGQGTQVTVSS | high polyreactivity |
| QVQLVESGGGLVQAGVSLRISCAASGFTFSRNAMGWYRQAPGKESELVAAITWSGGRSYYADSVKGRFTISGDNAKNPVYLQMNSLKPEDTAVYYCAARKYPLRSAYDYWGPGTQVTVSS | low polyreactivity |
| QVQLVESGGGLVQAGVSLRISSAASGLIFGSNAMGWYRQAPGIERELVAAISWRGGSTYYADSVKGRFTISRDNAKKTVSCQMNSLKPEDTAVYYCAKYPYYYYWFNYCGQGTQVTVSS | high polyreactivity |
| QVQLVESGGGLVQAGVSLRLICAASGFIFPTKVMGWYRQAPATEREFVASITWRGGGTFYADSVKGRFTISRDNAKNTVYLQMNRLKPEDTAVYYCAAGRSWSSFWKYDYWGQGTQVTVSS | low polyreactivity |
| QVQLVESGGGLVQAGVSLRLICAASGSIFITNFMGWYRQAPGKERELVAVISASGGSTYYADSVKGRFTISRDNAKNNVYLQMNSMKPEDTAVYYCARTQRRYSYGQMGYWGQGTQVTVSS | high polyreactivity |
| QVQLVESGGGLVQAGVSLRLRCAASASILSYYAMGWYRHAPGKERELVAAISRSGCTTYYADSVKGRFTISRDYAKNTVYLQMNSLIPEDTAVYYCAAVDRYYAYRDYYYWGQGTQVTVSS | high polyreactivity |
| QVQLVESGGGLVQAGVSLRLSCAASGFIFRPYTMGWYRLAPGKERELVAAISRSGDSTYYADSVKGRFTISRDNAKNTVYLQMNSLKPEDTAVYYCAAYYNGRVGPYYYWGQGTQVTVSS | high polyreactivity |
| QVQLVESGGGLVQAGVSLRLSCAASGFNFVFYDMGWYRQAPGKERELVAGITRNDGSTYYADSVKGRFKISRDNAKNTVYLQMNSLKPEDTAVYYCAADRVRRNDKLAYDYWGQGTQVTVSS | low polyreactivity |
| QVQLVESGGGLVQAGVSLRLSCAASGFTFQAYAMGWYRQAPGKERELVAAIRSRGDSTYYADSVKGRFTISRDNSKNTVYLQMNSLKPEDTAVYYCNVLGYSYWGQGTQVTVSS | high polyreactivity |
| QVQLVESGGGLVQAGVSLRLSCAASGFTFYYYAMVRNRQAPGKERELVAAITGSGGGTYYADSVKGRFTISRDYAKNTVYLQKNSLKPEDTAVYYCNALYVSTSDFVYWGQGTQVTVSS | high polyreactivity |
| QVQLVESGGGLVQAGVSLRLSCAASGGILYWYAMGWSRQAPGKERELVAAIDWTGGSTYYADSVKGRFTISRDNAKNTVYLQMNSLKPEDTAVYYCAADSYWGSGVVPGYDYWGQGTQVTVSS | low polyreactivity |
| QVQLVESGGGLVQAGVSLRLSCAASGITFARYTMGWYRQAPGKERELVAAINTSGGSTRYADSVKGRFTISRDNAKNTVYLQMNSLKPEDTAVYYCAARRKHSLFGKRYYWGQGTQVTVSS | high polyreactivity |
| QVQLVESGGGLVQAGVSLRLSCAASGITLYRYVMGWNRQAPGKERELVADISGRGTSTYYADSVKGRFTSSRDYAKNTVYLQMYRLKPEATAVYYCNAEYTKTGALGIPYTYYYAEDYWGQGTQVTVSS | low polyreactivity |
| QVQLVESGGGLVQAGVSLRLSCAASGNIFEQYAMGSDRQAPGKERELVARISWRGGSTYYADSVKGRFTISRDNAKNTVYLQLNSLKPEDTAVYYCNALEVVYFGYYPSDYWGQGTQVTVSS | low polyreactivity |
